Measured values taken from patent publication US6300084A, “Anti-mitotic agent screening process” (The Regents of the University of California, priority 1999, dated 2001).

Columns and labels:
[1] = target: bovine microtubules (assembled from bovine tubulin, stabilised with taxol) (bovine); experiment: co-sedimentation of in vitro translated Dam1p with taxol-stabilised bovine microtubules; half of Dam1p in the pellet at 5 µM microtubules
[2] = target: bovine microtubules (assembled from bovine tubulin, stabilised with taxol) (bovine); experiment: co-sedimentation with microtubules; no increase with more microtubules
[3] = target: yeast microtubules (yeast); experiment: as above
[4] = test system: microtubules of wild-type strain DDY898; experiment: Microtubule depolymerization by benomyl in yeast cells, immunofluorescence; assay type: cell-based; conditions: 20 μg/ml benomyl, two hours at 25° C.
Experimental: Yeast cells were grown to early log phase in minimal or rich medium. For galactose induction, cells were grown to log phase in medium containing either raffinose or glucose. Cells grown on glucose were washed twice with water and then diluted into medium containing galactose/raffinose. Galactose was added directly to medium containing raffinose. Fixation and immunofluorescence procedures were carried out as described by Drubin et al. (1988). The YOL134 anti-tubulin antibody was used at 1:200 and the anti-Duo1p antibody (preparation described below) at 1:2000. Fluorescein-conjugated anti-heavy chain secondary antisera were obtained from Cappel/Organon Teknika (Malvern, Pa.). To determine whether the localization of Duo1p was dependent on microtubules in vivo, microtubules of wild-type strain DDY898 were depolymerized by the addition of 20 μg/ml benomyl. […] With the elimination of microtubules, Duo1p staining also vanished.

With in vitro translated Dam1p the Kd [1] was 5 µM.
“GST-Duo1p fusion protein purified from yeast (pDD475)” showed a percent of the protein bound to microtubules [2] of 9% and a percent of the protein bound to microtubules [3] of 9%.
For `CCCCNC(=O)n1c(NC(=O)OC)nc2ccccc21` [benomyl], the “depolymerization of microtubules (immunofluorescence)” value [4] was “essentially all of the microtubules were depolymerized”.
